Data on 5 molecules can be found in patent US20150150157A1, “PREPHENATE DEHYDROGENASES AND AROGENATE DEHYDROGENASES THAT ARE INSENSITIVE TO EFFECTOR FEEDBACK INHIBITION AND METHODS OF USING THE SAME” (Wisconsin Alumni Research Foundation, priority 2013, published 2015).

Common to all, as to type: biochemical
Assay [1] relates to CM activity in the plastid fraction. In words: CM activity in plastidic fraction of soybean leaf with and without effector. The following applies: 1 mM effector. The procedure: (§1) CM activity from crude plant extracts and from cytosolic and plastidic fractions (FIG. 4I) was determined in the presence and absence of 1 mM L-Tyr or L-Trp (FIG. 4I) by detecting phenylpyruvate formation using the same HPLC method for HPLA detection (see above). Assays were set up as described above but were incubated for 60 min at 37° C. before addition of 1 N HCl. Phenylpyruvate was detected by UV absorbance at 270 nm and quantified by comparison to the authentic phenylpyruvate standard (Sigma-Aldrich).
(§2) Ten grams of 4-week-old soybean leaves were harvested at the end of the night to deplete starch. The fresh tissues were homogenized using a Polytron (Brinkmann, Westhury, N.Y.) in 10 ml of the plastid isolation buffer (0.5 M sorbitol, 20 mM HEPES (pH 7.4), 10 mM KCl, 1 mM MgCl2, 1 mM EDTA, 5 mM DTT and 1% BSA) (Kong and Rawsthorne. Plant J, 6: 795-805 (1994)). The homogenate was filtered through two layers of micracloth. The residual homogenate left on the micracloth was homogenized again in 10 ml of the isolation buffer and passed through two layers of micracloth, which was repeated once more to yield ˜30 ml of homogenate. The combined homogenate was centrifuged at 2,500 g for 5 min. The pellet was washed twice with the isolation buffer, resuspended in 4 ml of lysis buffer (25 mM HEPES (pH 7.5), 50 mM KCl) and left on ice for 20 min to rapture the plastids. […]

Assay [2] deals with CM activity in the cytosol. In words: CM activity in cytosolic fraction of soybean leaf with and without effector. The following applies: 1 mM effector. The procedure:
as §1, §2

Assay [3] in a line: Inhibition analysis: L-Tyr sensitivity of PDH activity, crude E. coli extract expressing Glyma11g35760. The following applies: for PDH activity: crude E. coli extract. The method, then:
For recombinant protein expression, the cloned pFT28a vectors were introduced into Rosetta-2 E. coli competent cells (Novagen) and cultured overnight at 37° C., 200 r.p.m. in 10 ml LB medium containing kanamycin (100 μg/ml) and chloramphenicol (100 μg/ml). Two milliliters of the overnight culture were transferred to 50 ml LB medium with the same antibiotics and further incubated at 37° C. and 200 r.p.m. until the OD600 reached 0.3. The temperature was then changed to 18° C. and, after 1 h, isopropyl β-D-I-thiogalactopyranoside (IPTG, […] final concentration) was added to induce recombinant protein expression. After overnight incubation at 18° C. under constant shaking at 200 r.p.m, cultures were harvested by centrifugation at 2,000 g for 30 min at 4° C. and the pellet was resuspended in an appropriate volume of lysis buffer (25 mM HEPES, pH 7, 50 mM KCl, 10% ethylene glycol, 1 mM phenylmethylsulfortyl fluoride (PMSF) and 1 mM DTT) calculated on the basis of the formula (OD600×ml volume of culture)/30. The resuspended pellet was sonicated three times for 15 s. The cell lysate was centrifuged at 16,000 g for 10 min at 4° C. and the supernatant was applied to a column containing 500 μl PerfectPro Ni-NTA resin (5 PRIME, Hamburg, Germany). The column was washed with ten times the bed volume of wash buffer 1 (50 mM sodium phosphate buffer, pH 8.0, 300 mM NaCl, 20 mM imidazole) followed by ten times the bed volume of wash buffer II (50 mM sodium phosphate buffer, pH 8.0, 300 mM NaCl, 40 mM imidazole) and then wash buffer III (50 mM sodium phosphate buffer, pH 8.0, 300 mM NaCl, 60 mM imidazole). The recombinant enzymes containing an N-terminal His6 tag were eluted from the resin with 1 ml of elution buffer (50 mM sodium phosphate buffer, pH. 8.0, 300 mM NaCl, 500 mM imidazole) and desalted as described above. The purity of the purified recombinant enzymes was estimated by running on SDS-PAGE gel (FIG. 12) and analyzing with ImageJ (http://imagej.nih.gov/ij/). The recombinant enzyme of Glyma11g35760 was tested for Tyr sensitivity (FIG. 5A) using crude E. coli extract as its purification was not successful owing to its low expression (FIG. 3B and FIG. 3C) and insolubility.
(§3) ADH and PDH reactions using GmPDH1, Glyma11g35760, MtPDH1 and AtADH2 (FIG. 5A) contained 200 mM HEPES (pH 7.3), 50 mM KCl, 10% ethylene glycol, 1 mN4 NADP^+ and 1 mM substrate (L-arogenate or prephenate, respectively). Reactions were started by addition of enzyme and incubated at 37° C. for 15 min in the presence of increasing concentrations of effectors: L-Tyr FIG. 5A), L-Phe, L-Trp and HPP. Tyr was dissolved in basic conditions (0.025 N NaOH) to dissolve at high concentrations (up to 10 mM), though 200 mM HEPES maintained the final reaction pH at 7.6. Tyr sensitivity of purified recombinant GmPDH1 and MtPDH1 was also tested at prephenate concentrations ranging from […] to 59 μM, below the K values for GmPDH1 and MtPDH1, while keeping the L-Tyr concentration constant at 1 mM (FIG. 13). Enzyme activity was measured for the production of reduced cofactor (NADPH) at 340 nm using a spectrophotometer, except for crude soybean extracts, which were analyzed by HPLC after 45 min incubation and reduction to HPLA as described above.

Assay [4] in a line: Qualitative HPLC detection of PDH activity in E. coli cell lysates expressing candidate enzymes. The following applies: 2 mM prephenate, saturating conditions. The method, then: ADH and PDH reactions contained 25 mM HEPES (pH 7.5), 50 mM KCl, 10% ethylene glycol, 1 mM NADP (or NAD^+), 2 mM substrate (L-arogenate or prephenate, respectively) unless otherwise noted. Arogenate was prepared by enzymatic conversion from prephenate (Sigma-Aldrich), as previously reported. Reactions were started by addition of enzyme from various sources and incubated at 37′ C. for a given amount of time, as noted below,
HPLC-based methods were used to directly detect the final products of ADH and PDH assays, Tyr and HPP, respectively from crude E. coli extracts (FIG. 3B and FIG. 3C) and crude plant extracts (FIG. 2A and FIG. 6). For HPLC detection of PDH activity, reactions were incubated for 45 min and terminated by addition of NaBH4, which converts the reaction product HPP (which produced multiple peaks; FIG. 6) into hydroxyphenyllactic acid (HPLA), followed by neutralization with 100 μl of 6 N HCl. The conversion and recovery rate was 80±1.5% s.d. which was taken into account for the calculation of specific activity from crude plant extracts (FIG. 2C). HPLA was detected as a single peak (FIG. 2A) after being separated by HPLC (Agilent 1260, Santa Clara, Calif.) equipped with a ZORBA X SB-C18 column (Agitent) using a 6-min isocratic elution at 25% methanol in 0.1% phosphoric acid, followed by a 20-min linear gradient of 25-60% methanol at a flow rate of 1.0 ml/min. HPLA was detected using UV absorbance at 270 nm and quantified by a calibration curve generated from the authentic HPLA standard (Sigma-Aldrich). For HPLC-based detection of ADH activity (FIG. 3B), reactions were incubated for 45 min and terminated by addition of methanol to a final concentration of 66% (v/v). The product, Tyr, was derivatized with OPA and separated on a ZORBAX eclipse-XDB C18 column (Agilent) using a 30-min linear gradient of 20-45% methanol in 0.1% animonium acetate at a flow rate of 0.8 ml/min. Tyr was detected by UV absorption at 336 nm and quantified on the basis of a calibration curve generated by the authentic Tyr standard (Acros, Geel, Belgium).
The crude enzyme extracts were first subjected to PDH and ADH assays using saturating conditions to screen for any detectable PDH and/or ADH activity (FIG. 3B and FIG. 3C). ADH activity was detected from all five candidates. In contrast, PDH activity was detected only in Glyma11a35760 and Glyma18g02650 as well as their closest homolog from Medicago (Mt3g071980) but not in Glyma5g07870, Glyma17g13150 and Glyma14g05990 (FIG. 3C).

Assay [5] in a line: Inhibition analysis: L-Tyr sensitivity of ADH activity of recombinant AtADH2. The note with it: for ADH activity: 1 mM L-arogenate, 1 mM NADP+, 37° C., 15 min. The procedure:
as §3

Turning to `N[C@@H](Cc1c[nH]c2ccccc12)C(=O)O` [L-Trp, tryptophan], the “induction of CM activity in the plastid fraction” value in assay [1] was “approximately threefold”. Besides, in assay [2], the “CM activity in the cytosol” value is “increased”.

Turning to `N[C@@H](Cc1ccc(O)cc1)C(=O)O` [L-Tyr, Tyrosine], in assay [1], the “CM activity in the plastid fraction” value is given as “completely inhibited”. Besides, in assay [2], the “CM activity in the cytosol” value is reported as “only slightly decreased”.

B1: Glyma11g35760: soybean PDH enzyme, paralog of Glyma18g02650, tested as crude E. coli extract (protein)
chain: MTTMSTSSSSQSLKIGIVGFGNFGQFLAKTMIKQGHTLTATSRSDYSQLCLQMGIHFFRDVSAFLAADIDVIVLCTSILSLSEVVGSMPLTSLKRPTLFVDVLSVKEHPRELLLRELPEDSDILCTHPMFGPQTANNGWTDHTFMYDKVRIRDEATCSSFIQIFATEGCKMVQMSCEEHDRAAAKSQFITHTIGRTLGEMDIQSTPIDTKGFETLVKLKETMMRNSFDLYSGLFVYNRFARQELENLEHAFYKVKETLMIQRSNGEQGHKRTES
modifications: Glycine max
notes: soybean PDH enzyme, paralog of Glyma18g02650, tested as crude E. coli extract
For the molecule B1, in assay [3] (E. coli extract expressing the enzyme), the “inhibition of PDH activity by L-Tyr” value is on record as “not inhibited”. The PDH activity in assay [3] (L-Tyr 0 mM) stood at 1219 ± 76 pKat/mg; in assay [3] (L-Tyr 0.01 mM), 1211 ± 39 pKat/mg; in assay [3] (L-Tyr 0.1 mM), 1173 ± 16 pKat/mg; in assay [3] (L-Tyr 1.0 mM), 1250 ± 63 pKat/mg; in assay [3] (L-Tyr 10 mM), 1109 ± 79 pKat/mg. Moreover, the “PDH activity (qualitative detection)” value in assay [4] is recorded as “detected”.

B2: AtADH2: Arabidopsis thaliana arogenate dehydrogenase 2, recombinant enzyme, inhibited by L-Tyr (protein, UniProt Q9LMR3 37-358, looked up)
Arogenate dehydrogenase 2, …: IDAAQIFDYETQLKSEYRKSSALKIAVLGFGNFGQFLSKTLIRHGHDLITHSRSDYSDAANSIGARFFDNPHDLCEQHPDVVLLCTSILSTESVLRSFPFQRLRRSTLFVDVLSVKEFPKALFIKYLPKEFDILCTHPMFGPESGKHSWSGLPFVYDKVRIGDAASRQERCEKFLRIFENEGCKMVEMSCEKHDYYAAGSQFVTHTMGRVLEKYGVESSPINTKGYETLLDLVENTSSDSFELFYGLFMYNPNALEQLERLDMAFESVKKELFGRLHQQYRKQMFGGEVQSPKKTEQKLLNDGGVVPMNDISSSSSSSSSSS
As for B2, the “reduction of ADH activity” value in assay [5] (100 μM L-Tyr) is recorded as approximately 75%. Further, the ADH activity amounted to 923 ± 34 uKat/mg in assay [5] (L-Tyr 0 mM), 766 ± 35 uKat/mg in assay [5] (L-Tyr 0.01 mM) and 251 ± 45 uKat/mg in assay [5] (L-Tyr 0.1 mM). Also, the “ADH activity in the presence of L-Tyr” value in assay [5] (≧1 mM L-Tyr) is listed as “abolished”.

B3: Glyma14g05990: soybean enzyme having predominately arogenate dehydrogenase activity (protein)
chain: MSTWSLKIGVVGFGSFGQFLAKTMIKQGHTLRATSRTDYSLLCLPMGIQFFRDVAAFLEADNDVILVCTSILSLSEVLSSMPLTCLKRSTLFVDVLSVKEHPRNLLIKVLPEESDILCTHPMFGPDSGKDGWQDLTFVYDKVRIRDEAICSSFLHIFASEGCRMLQMSCEEHDKIAAKSQFITHTIGRTLAEMDIKSTPIDTKGFHSLVQLKDTTIRDSFDLYSGLFLHNRFAVQELENLEHALHKVKEMLVQRKSEELGLEKTEC
modifications: Glycine max
For the molecule B3, in assay [4], the “PDH activity (qualitative detection)” value was “not”.
